Results reported in publication PMC9709071.

Key:
DcR3 = DcR3 (UniProt O95407); assay: ELISA; receptor (DR3-Fc; DcR3) immobilised on Maxisorp plates, TL1A variant titrated in 3-fold dilutions, overnight 4 °C, detected with anti-human TL1A-biotin and streptavidin-HRP; concentrations normalised to TL1A trimer; triplicate
Recombinant DR3-Fc [1] = target: Recombinant DR3-Fc (UniProt Q93038); assay: as above
Recombinant DR3-Fc [2] = target: Recombinant DR3-Fc (UniProt Q93038); assay: ELISA; DR3-Fc immobilised non-specifically on Maxisorp plates (overnight, 4 °C), casein block; TL1A added in 3-fold dilutions, overnight 4 °C; bound TL1A detected with polyclonal rabbit anti-human TL1A-biotin and streptavidin-HRP; concentrations normalised to TL1A trimers; triplicate

DcR3, sequence (O95407 30-300): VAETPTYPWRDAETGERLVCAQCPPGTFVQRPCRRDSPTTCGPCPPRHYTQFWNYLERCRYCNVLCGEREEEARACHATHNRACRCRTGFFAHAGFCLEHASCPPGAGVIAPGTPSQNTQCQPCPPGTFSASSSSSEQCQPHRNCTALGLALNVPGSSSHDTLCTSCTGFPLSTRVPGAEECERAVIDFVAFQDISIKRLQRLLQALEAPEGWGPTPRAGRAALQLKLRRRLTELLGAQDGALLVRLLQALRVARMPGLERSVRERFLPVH
Recombinant DR3-Fc, sequence (Q93038 25-199): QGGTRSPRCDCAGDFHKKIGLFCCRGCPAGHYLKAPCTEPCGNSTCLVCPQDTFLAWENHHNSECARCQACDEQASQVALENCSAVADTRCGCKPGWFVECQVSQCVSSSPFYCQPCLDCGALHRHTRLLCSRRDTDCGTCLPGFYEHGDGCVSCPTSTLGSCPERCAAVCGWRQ

Substance | EC50 (DcR3) [nM] | EC50 (Recombinant DR3-Fc [1]) [nM] | EC50 (Recombinant DR3-Fc [2]) [nM]
TL1W104 (T185L) (from UniProt O95150 1-251) (ligand) | 19.3 | 49.4 | 
TL1W88 (R156A) (from UniProt O95150 1-251) (ligand) | 13.5 |  | 
TL1W125 (N207E) (from UniProt O95150 1-251) (ligand) | 9.8 | 506 | 
TL1W87 (G124D) (from UniProt O95150 1-251) (ligand) |  | 14.8 | 
TL1W78 (R103H) (from UniProt O95150 1-251) (ligand) | 8.1 | 77.2 | 
TL1W84 (E120H) (from UniProt O95150 1-251) (ligand) | 55.7 | 182 | 
TL1W81 (K111S) (from UniProt O95150 1-251) (ligand) | 50.9 | 34.4 | 
TL1W135 (K240A) (from UniProt O95150 1-251) (ligand) | 8.5 |  | 
TL1W102 (S176K) (from UniProt O95150 1-251) (ligand) | 29.2 | 182 | 
TL1W132 (T239A) (from UniProt O95150 1-251) (ligand) | 27.2 | 144 | 
TL1W30 (N112E) (from UniProt O95150 1-251) (ligand) | 4.7 | 16.4 | 
TL1W114 (T192A) (from UniProt O95150 1-251) (ligand) | 10 | 23.3 | 
TL1W91 (R156E) (from UniProt O95150 1-251) (ligand) | 8.3 |  | 
TL1W111 (S187D) (from UniProt O95150 1-251) (ligand) | 16.7 | 44.2 | 
His-scTL1A TL1W19 (from UniProt O95150 84-251; O95150 84-251; O95150 84-251) (ligand) |  |  | 27.3
TL1W89 (R156Y) (from UniProt O95150 1-251) (ligand) | 8 |  | 
TL1W120 (S206K) (from UniProt O95150 1-251) (ligand) | 91 | 114 | 
TL1W31 (R103Q) (from UniProt O95150 1-251) (ligand) | 2.5 | 9.5 | 
TL1W33 (E241L) (from UniProt O95150 1-251) (ligand) | 5.7 |  | 
HSA-scTL1A (TL1W15) (from UniProt O95150 84-251; O95150 84-251; O95150 84-251) (ligand) |  |  | 29.2

Substance | EC50 (DcR3) [nM] | EC50 (Recombinant DR3-Fc [1]) [nM] | EC50 (Recombinant DR3-Fc [2]) [nM]
TL1W94 (M158E) (from UniProt O95150 1-251) (ligand) | 18.7 | 58.7 | 
TL1W100 (S176L) (from UniProt O95150 1-251) (ligand) | 15 | 324 | 
TL1W27 (T239E) (from UniProt O95150 1-251) (ligand) | 34.3 |  | 
TL1W108 (S187A) (from UniProt O95150 1-251) (ligand) |  | 39.1 | 
TL1W99 (S176A) (from UniProt O95150 1-251) (ligand) | 11.5 | 34.8 | 
TL1W110 (S187K) (from UniProt O95150 1-251) (ligand) | 15.8 | 33.7 | 
TL1W98 (K173R) (from UniProt O95150 1-251) (ligand) | 27.8 | 2050 | 
TL1W106 (T185D) (from UniProt O95150 1-251) (ligand) | 79.9 | 124 | 
TL1W46 (T239W) (from UniProt O95150 1-251) (ligand) |  | 284 | 
TL1W127 (Y238A) (from UniProt O95150 1-251) (ligand) | 8.9 | 4620 | 
TL1W41 (E120A) (from UniProt O95150 1-251) (ligand) | 32.6 | 100 | 
TL1W43 (Y188S) (from UniProt O95150 1-251) (ligand) | 72.2 | 207 | 
TL1W25 (N207A) (from UniProt O95150 1-251) (ligand) | 3.7 | 13.4 | 
TL1W137 (K240S) (from UniProt O95150 1-251) (ligand) | 11.8 | 336 | 
TL1W113 (P189S) (from UniProt O95150 1-251) (ligand) | 19.8 | 1000 | 
TL1W136 (K240F) (from UniProt O95150 1-251) (ligand) | 178 | 266 | 
TL1W129 (Y238K) (from UniProt O95150 1-251) (ligand) | 9 | 446 | 
TL1W97 (K173S) (from UniProt O95150 1-251) (ligand) | 6.7 | 131 | 
TL1W134 (T239K) (from UniProt O95150 1-251) (ligand) | 21.5 |  | 
